Drawing on PMC3282170 (Febs Letters, 2012), this text covers Kd for two molecules.

A value given as a limit tells only on which side of the number the result lay.

One may read the Kd as the equilibrium constant for the complex coming apart.

Test [1] deals with Human γD-crystallin I4F/V76D, bimane-labeled at cysteine 111 (human) (UniProt P07320). Description: fluorescence polarisation. Background: In fluorescence polarisation assays a small probe gives low polarisation when free and higher when bound to something large.
The target in test [2] is T1, triply phosphorylated analog (S19D/S45D/S59D) of αB-crystallin (UniProt P02511 1-175, S19D | S45D | S59D).
T1 sequence (looked up): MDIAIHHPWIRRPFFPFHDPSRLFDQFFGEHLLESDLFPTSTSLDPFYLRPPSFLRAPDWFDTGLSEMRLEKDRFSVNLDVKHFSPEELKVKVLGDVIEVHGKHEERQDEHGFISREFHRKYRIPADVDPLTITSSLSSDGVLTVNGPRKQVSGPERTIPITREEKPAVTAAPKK
Description: fluorescence polarisation.

The molecule “αB-crystallin (from UniProt P02511 1-175) (natural protein)” showed a Kd in test [1] greater than 300 µM.

B1: Human γD-crystallin I4F/V76D, bimane-labeled at cysteine 111 (natural protein)
chain: GKFTLYEDRGFQGRHYECSSDHPNLQPYLSRCNSARVDSGCWMLYEQPNYSGLQYFLRRGDYADHQQWMGLSDSDRSCRLIPHSGSHRIRLYEREDYRGQMIEFTEDCSCLQDRFRFNEIHSLNVLEGSWVLYELSNYRGRQYLLMPGDYRRYQDWGATNARVGSLRRVIDFS
modifications: bimane label at cysteine C111
Turning to B1, in test [2], the Kd amounted to 27 ± 6 µM.
